From patent WO2008140316A1

Molecular target: human CD40 receptor on monocytes (human) (UniProt P25942)
Experiment: cell-based or functional assay

Chain of UniProt P25942 (P25942 21-277): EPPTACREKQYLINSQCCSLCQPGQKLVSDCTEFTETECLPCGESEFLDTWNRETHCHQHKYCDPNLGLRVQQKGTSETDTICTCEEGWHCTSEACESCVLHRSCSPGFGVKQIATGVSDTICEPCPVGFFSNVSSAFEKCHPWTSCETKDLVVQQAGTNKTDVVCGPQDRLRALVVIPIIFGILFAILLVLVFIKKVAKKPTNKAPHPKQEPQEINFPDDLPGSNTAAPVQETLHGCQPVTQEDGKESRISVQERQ

IL-1β (pg/mL), Clone 64+IFN-γ, MDS CD14+ cells (Table 3): 18 pg/mL
IL-1β (pg/mL), Clone 64+IFN-γ, donor CD14+ cells (Table 3): 13 pg/mL
IL-6 (pg/mL), Clone 64+IFN-γ, MDS CD14+ cells (Table 3): 1210 pg/mL
IL-6 (pg/mL), Clone 64+IFN-γ, donor CD14+ cells (Table 3): 1490 pg/mL
IL-10 (pg/mL), Clone 64+IFN-γ, MDS CD14+ cells (Table 3): 1650 pg/mL
IL-10 (pg/mL), Clone 64+IFN-γ, donor CD14+ cells (Table 3): 1170 pg/mL
TNF-α (pg/mL), Clone 64+IFN-γ, MDS CD14+ cells (Table 3): 293 pg/mL
TNF-α (pg/mL), Clone 64+IFN-γ, donor CD14+ cells (Table 3): 52 pg/mL
TNF-α production by CD14+ monocytes from MDS patients, clone 64 + IFN-γ, 24 h, ELISA: 449 pg/mL
TNF-α production by CD14+ monocytes from normal controls, clone 64 + IFN-γ, 24 h, ELISA: 67 pg/mL
Substance: clone 64 (agonist anti-human CD40 monoclonal antibody, PanGenetics, The Netherlands)
